Assay results from patent US20150272562A1 (ETHICON, published 2015).

Columns and labels:
[1] = target: T1, fibrin monomers, dimers and/or oligomers (UniProt P02671 36-629; P02675 45-491; P02679 27-437); test: cell-based or functional assay
T1 sequence (looked up) 1: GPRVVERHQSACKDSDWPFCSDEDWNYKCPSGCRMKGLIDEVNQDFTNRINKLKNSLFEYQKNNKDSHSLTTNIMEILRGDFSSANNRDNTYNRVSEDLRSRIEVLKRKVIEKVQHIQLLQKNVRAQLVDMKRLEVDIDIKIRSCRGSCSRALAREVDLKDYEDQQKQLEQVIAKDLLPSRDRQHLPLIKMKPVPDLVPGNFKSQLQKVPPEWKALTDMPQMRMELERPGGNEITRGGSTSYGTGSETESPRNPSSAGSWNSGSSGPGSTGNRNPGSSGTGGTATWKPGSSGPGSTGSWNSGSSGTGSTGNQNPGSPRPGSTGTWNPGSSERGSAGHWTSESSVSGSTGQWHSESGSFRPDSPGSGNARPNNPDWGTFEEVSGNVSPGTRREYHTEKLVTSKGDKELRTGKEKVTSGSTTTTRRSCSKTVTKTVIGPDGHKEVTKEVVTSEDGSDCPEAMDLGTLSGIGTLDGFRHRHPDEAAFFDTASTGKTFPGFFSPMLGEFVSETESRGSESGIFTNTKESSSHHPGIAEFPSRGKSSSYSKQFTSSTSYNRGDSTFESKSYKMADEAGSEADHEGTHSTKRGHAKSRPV
T1 sequence (looked up) 2: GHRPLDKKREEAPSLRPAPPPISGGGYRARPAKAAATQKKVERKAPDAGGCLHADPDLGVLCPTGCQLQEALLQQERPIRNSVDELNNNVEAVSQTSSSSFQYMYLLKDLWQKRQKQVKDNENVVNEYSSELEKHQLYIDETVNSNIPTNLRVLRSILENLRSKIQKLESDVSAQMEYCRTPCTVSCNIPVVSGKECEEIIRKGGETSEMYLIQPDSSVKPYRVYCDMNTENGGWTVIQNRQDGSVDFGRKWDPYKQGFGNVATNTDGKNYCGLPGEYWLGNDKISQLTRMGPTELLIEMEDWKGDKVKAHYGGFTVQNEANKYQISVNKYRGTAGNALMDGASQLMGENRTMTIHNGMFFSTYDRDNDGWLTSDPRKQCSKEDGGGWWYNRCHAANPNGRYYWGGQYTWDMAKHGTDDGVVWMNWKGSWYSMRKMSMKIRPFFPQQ
T1 sequence (looked up) 3: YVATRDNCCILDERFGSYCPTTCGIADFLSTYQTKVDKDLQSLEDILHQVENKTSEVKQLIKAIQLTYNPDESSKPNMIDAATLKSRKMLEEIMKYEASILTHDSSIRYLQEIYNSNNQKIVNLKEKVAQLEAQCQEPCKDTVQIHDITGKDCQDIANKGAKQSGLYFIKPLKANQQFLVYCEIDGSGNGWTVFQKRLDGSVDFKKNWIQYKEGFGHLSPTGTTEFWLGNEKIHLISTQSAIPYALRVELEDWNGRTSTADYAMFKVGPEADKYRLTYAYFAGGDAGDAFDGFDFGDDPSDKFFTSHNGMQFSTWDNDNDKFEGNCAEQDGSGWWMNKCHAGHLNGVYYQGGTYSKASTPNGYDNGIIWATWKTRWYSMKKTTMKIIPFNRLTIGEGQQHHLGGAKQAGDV

[2] = target: T1, fibrin monomers, dimers and/or oligomers; test: cell-based or functional assay; remark: listed apart in the source

GPRP [GPRP peptide (Gly-Pro-Arg-Pro)]
fibrin polymerization; 40 mM GPRP, molar ratio above 340:1 GPRP:fibrin [1]: > 14 days
Time to clot (cessation of flow on tube inversion); GPRP 0.1 mM, 1.1-fold GPRP:fibrin, 3% fibrin, thrombin 100 IU/ml [2]: 5 s
Time to clot (cessation of flow on tube inversion); GPRP 0.2 mM, 2.3-fold GPRP:fibrin, 3% fibrin, thrombin 100 IU/ml [2]: 7 s
Time to clot (cessation of flow on tube inversion); GPRP 0.5 mM, 5.7-fold GPRP:fibrin, 3% fibrin, thrombin 100 IU/ml [2]: 11 s
Time to clot (cessation of flow on tube inversion); GPRP 1 mM, 11.3-fold GPRP:fibrin, 3% fibrin, thrombin 100 IU/ml [2]: 13 s
Time to clot (cessation of flow on tube inversion); GPRP 1.5 mM, 17-fold GPRP:fibrin, 3% fibrin, thrombin 100 IU/ml [2]: 22 s
Time to clot (cessation of flow on tube inversion); GPRP 2 mM, 22.7-fold GPRP:fibrin, 3% fibrin, thrombin 100 IU/ml [2]: 28 s
Time to clot (cessation of flow on tube inversion); GPRP 3 mM, 34-fold GPRP:fibrin, 3% fibrin, thrombin 100 IU/ml [2]: 2.5 min
Time to clot (cessation of flow on tube inversion); GPRP 4 mM, 45-fold GPRP:fibrin, 3% fibrin, thrombin 100 IU/ml [2]: 8 min
Time to clot (cessation of flow on tube inversion); GPRP 5 mM, 56.7-fold GPRP:fibrin, 3% fibrin, thrombin 100 IU/ml [2]: 15 min
